US20160200782A1
Each block holds one substance with its values, some of them ahead of it.

Legend:
Assay in all cases: cell-based or functional assay
[1] = target: BrSK2(h) (human) (UniProt Q8IWQ3)
[2] = target: Tec(h)activated (human) (UniProt P42680)
[3] = target: EphA4(h) (human) (UniProt P54764)
[4] = target: TAO2(h) (human) (UniProt Q9UL54)
[5] = target: MLK1(h) (human) (UniProt P80192)
[6] = target: Rse(h) (human) (UniProt Q06418)
[7] = target: MAPKAP-K2(h) (human) (UniProt P49137)
[8] = target: SAPK2a(h) (human) (UniProt Q16539)
[9] = target: Met(Y1248D)(h) (human) (UniProt P08581)
[10] = target: CK2(h) (human)
[11] = target: cKit(h) (human) (UniProt P10721)
[12] = target: Ab1(T315I)(h) (human) (UniProt P00519)
[13] = target: TrkB(h) (human) (UniProt Q16620)
[14] = target: Fms(h) (human) (UniProt P07333)
[15] = target: EphA1(h) (human) (UniProt P21709)
[16] = target: PKCθ(h) (human) (UniProt Q04759)
[17] = target: SRPK1(h) (human) (UniProt Q96SB4)
[18] = target: Ab1(Q252H)(h) (human) (UniProt P00519)
[19] = target: ARK5(h) (human) (UniProt O60285)
[20] = target: PKCδ(h) (human) (UniProt Q05655)
[21] = target: Txk(h) (human) (UniProt P42681)
[22] = target: ZIPK(h) (human) (UniProt O43293)
[23] = target: EGFR(L861Q)(h) (human) (UniProt P00533)
[24] = target: SAPK4(h) (human) (UniProt O15264)
[25] = target: CDK2/cyclinA(h) (human) (UniProt P24941)
[26] = target: PDGFRβ(h) (human) (UniProt P09619)
[27] = target: CHK2(R145W)(h) (human) (UniProt O96017)
[28] = target: FGFR1(h) (human) (UniProt P11362)
[29] = target: MuSK(h) (human) (UniProt O15146)
[30] = target: EGFR(L858R)(h) (human) (UniProt P00533)
[31] = target: Hck(h) (human) (UniProt P08631)
[32] = target: PKD2(h) (human) (UniProt Q9BZL6)
[33] = target: PKCβII(h) (human) (UniProt P05771)
[34] = target: MST2(h) (human) (UniProt Q13188)
[35] = target: SAPK3(h) (human) (UniProt P53778)
[36] = target: NEK11(h) (human) (UniProt Q8NG66)
[37] = target: Rsk4(h) (human) (UniProt Q9UK32)
[38] = target: CaMKIIβ(h) (human) (UniProt Q13554)
[39] = target: mTOR/FKBP12(h) (human) (UniProt P42345)
[40] = target: HIPK1(h) (human) (UniProt Q86Z02)
[41] = target: ROCK-I(h) (human) (UniProt Q13464)
[42] = target: Met(Y1248C)(h) (human) (UniProt P08581)
[43] = target: CDK5/p35(h) (human) (UniProt Q00535)
[44] = target: Syk(h) (human) (UniProt P43405)
[45] = target: Met(M1268T)(h) (human) (UniProt P08581)
[46] = target: Flt4(h) (human) (UniProt P35916)
[47] = target: MELK(h) (human) (UniProt Q14680)
[48] = target: Ab1(M351T)(h) (human) (UniProt P00519)
[49] = target: PKCτ(h) (human)
[50] = target: MRCKβ(h) (human) (UniProt Q9Y5S2)
[51] = target: CSK(h) (human) (UniProt P41240)
[52] = target: ErbB4(h) (human) (UniProt Q15303)
[53] = target: IR(h), activated (human) (UniProt P06213)
[54] = target: MST3(h) (human) (UniProt Q9Y6E0)
[55] = target: CDK7/cyclinH/MAT1(h) (human) (UniProt P50613)
[56] = target: Ron(h) (human) (UniProt Q04912)

Chain of MST2(h) (human) (Q13188 whole entry): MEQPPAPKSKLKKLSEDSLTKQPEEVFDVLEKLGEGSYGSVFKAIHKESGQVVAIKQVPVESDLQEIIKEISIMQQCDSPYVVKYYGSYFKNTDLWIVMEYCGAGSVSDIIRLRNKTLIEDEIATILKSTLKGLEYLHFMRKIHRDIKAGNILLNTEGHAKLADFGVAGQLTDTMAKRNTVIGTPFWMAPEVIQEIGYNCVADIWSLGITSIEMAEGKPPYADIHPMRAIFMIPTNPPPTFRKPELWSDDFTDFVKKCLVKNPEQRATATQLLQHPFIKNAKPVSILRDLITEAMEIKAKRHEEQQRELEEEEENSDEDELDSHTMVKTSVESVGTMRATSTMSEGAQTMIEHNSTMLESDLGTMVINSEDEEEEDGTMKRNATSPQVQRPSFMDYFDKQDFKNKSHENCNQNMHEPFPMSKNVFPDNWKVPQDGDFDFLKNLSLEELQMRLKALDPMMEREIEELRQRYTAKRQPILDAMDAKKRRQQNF
Chain of cKit(h) (human) (P10721 544-976 limits assumed): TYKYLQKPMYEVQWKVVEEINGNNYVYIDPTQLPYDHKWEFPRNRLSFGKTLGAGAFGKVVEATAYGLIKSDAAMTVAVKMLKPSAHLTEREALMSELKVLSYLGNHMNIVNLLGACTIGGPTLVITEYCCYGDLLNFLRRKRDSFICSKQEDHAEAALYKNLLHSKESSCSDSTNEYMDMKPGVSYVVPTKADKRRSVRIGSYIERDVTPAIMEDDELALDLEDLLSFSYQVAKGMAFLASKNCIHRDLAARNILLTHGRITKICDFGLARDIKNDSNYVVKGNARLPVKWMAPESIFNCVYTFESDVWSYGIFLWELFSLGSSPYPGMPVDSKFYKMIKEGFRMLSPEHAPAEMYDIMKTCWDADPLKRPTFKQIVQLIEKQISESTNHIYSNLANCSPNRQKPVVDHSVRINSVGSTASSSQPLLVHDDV
Chain of ROCK-I(h) (human) (Q13464 17-535 limits assumed): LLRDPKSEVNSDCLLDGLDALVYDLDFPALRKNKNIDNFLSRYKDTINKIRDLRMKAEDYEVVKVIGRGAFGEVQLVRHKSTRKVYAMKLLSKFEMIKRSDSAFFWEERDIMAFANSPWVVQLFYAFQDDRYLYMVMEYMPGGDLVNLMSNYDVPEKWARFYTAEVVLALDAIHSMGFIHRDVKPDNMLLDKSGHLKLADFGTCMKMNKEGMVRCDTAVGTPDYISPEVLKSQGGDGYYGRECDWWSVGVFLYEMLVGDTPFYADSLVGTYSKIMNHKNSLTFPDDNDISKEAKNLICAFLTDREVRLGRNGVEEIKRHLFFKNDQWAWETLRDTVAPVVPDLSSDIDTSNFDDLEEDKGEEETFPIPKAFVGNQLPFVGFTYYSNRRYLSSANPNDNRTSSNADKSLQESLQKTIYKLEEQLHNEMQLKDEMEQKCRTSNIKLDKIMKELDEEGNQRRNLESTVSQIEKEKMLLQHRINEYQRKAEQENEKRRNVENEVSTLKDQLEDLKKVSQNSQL
Chain of MST3(h) (human) (Q9Y6E0 whole entry): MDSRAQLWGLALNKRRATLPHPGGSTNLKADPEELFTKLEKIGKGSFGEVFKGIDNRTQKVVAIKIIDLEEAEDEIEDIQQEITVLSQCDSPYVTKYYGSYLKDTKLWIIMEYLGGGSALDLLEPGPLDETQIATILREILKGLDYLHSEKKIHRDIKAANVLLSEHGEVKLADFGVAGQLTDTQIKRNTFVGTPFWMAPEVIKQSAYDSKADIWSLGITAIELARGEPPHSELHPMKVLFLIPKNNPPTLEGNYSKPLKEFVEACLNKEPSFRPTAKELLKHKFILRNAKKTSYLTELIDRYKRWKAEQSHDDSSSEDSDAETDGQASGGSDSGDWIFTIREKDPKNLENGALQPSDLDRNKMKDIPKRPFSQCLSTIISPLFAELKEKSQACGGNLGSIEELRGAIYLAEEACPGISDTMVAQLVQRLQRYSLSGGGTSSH
Chain of PKCδ(h) (human) (Q05655 whole entry, stated change not applied): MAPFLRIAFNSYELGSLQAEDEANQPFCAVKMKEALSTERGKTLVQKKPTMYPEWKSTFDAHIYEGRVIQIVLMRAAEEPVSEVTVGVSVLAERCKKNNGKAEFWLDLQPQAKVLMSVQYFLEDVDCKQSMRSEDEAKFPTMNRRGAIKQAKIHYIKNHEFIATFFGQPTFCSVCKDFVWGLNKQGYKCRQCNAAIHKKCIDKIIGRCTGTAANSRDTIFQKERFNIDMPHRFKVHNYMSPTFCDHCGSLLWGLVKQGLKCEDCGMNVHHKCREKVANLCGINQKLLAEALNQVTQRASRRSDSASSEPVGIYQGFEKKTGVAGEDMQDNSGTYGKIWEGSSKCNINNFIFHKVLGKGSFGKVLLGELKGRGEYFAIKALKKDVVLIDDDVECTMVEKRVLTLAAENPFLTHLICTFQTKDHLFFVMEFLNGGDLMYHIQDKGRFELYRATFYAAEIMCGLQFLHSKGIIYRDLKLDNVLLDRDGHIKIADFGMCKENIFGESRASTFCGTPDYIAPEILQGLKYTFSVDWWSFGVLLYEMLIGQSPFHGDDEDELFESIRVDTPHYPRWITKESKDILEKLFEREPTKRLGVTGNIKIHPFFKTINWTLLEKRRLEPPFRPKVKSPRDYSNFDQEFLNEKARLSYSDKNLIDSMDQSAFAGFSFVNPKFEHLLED
Chain of Tec(h)activated (human) (P42680 whole entry): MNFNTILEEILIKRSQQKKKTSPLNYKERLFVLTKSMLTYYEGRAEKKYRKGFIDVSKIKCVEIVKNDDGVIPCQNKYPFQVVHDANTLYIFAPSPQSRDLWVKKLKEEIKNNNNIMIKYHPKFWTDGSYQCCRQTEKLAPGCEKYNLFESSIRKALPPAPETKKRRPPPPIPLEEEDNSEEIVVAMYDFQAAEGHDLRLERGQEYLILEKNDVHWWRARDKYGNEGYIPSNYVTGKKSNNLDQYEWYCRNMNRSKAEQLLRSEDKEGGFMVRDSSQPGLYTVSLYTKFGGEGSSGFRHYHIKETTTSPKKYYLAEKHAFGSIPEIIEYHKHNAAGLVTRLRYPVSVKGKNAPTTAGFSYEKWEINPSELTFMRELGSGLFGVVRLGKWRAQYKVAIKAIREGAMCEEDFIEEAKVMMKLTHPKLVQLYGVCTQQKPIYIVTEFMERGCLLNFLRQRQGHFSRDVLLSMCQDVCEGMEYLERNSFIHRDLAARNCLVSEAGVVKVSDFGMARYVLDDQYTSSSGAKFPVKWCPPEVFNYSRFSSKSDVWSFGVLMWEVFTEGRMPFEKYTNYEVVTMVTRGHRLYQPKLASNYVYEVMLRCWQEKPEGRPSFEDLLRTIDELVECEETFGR
Chain of BrSK2(h) (human) (Q8IWQ3 whole entry): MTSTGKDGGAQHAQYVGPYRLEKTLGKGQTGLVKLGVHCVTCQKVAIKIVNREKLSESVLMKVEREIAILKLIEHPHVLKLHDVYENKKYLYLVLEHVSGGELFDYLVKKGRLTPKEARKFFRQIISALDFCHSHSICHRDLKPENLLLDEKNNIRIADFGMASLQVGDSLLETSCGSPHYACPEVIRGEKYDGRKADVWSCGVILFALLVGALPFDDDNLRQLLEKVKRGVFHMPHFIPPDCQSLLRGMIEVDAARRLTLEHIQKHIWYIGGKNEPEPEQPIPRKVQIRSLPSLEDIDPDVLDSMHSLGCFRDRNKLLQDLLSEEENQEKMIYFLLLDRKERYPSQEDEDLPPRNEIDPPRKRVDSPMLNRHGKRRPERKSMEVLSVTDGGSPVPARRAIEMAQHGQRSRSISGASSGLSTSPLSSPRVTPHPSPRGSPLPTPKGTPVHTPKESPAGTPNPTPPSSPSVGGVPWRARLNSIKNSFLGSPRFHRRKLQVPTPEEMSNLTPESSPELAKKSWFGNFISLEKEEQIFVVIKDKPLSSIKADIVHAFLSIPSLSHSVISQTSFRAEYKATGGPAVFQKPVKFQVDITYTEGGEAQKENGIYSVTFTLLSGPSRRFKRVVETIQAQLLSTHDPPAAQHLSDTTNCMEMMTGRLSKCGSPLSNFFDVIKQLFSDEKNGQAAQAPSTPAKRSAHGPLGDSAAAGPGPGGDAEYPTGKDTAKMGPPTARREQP
Chain of MRCKβ(h) (human) (Q9Y5S2 1-473 limits assumed): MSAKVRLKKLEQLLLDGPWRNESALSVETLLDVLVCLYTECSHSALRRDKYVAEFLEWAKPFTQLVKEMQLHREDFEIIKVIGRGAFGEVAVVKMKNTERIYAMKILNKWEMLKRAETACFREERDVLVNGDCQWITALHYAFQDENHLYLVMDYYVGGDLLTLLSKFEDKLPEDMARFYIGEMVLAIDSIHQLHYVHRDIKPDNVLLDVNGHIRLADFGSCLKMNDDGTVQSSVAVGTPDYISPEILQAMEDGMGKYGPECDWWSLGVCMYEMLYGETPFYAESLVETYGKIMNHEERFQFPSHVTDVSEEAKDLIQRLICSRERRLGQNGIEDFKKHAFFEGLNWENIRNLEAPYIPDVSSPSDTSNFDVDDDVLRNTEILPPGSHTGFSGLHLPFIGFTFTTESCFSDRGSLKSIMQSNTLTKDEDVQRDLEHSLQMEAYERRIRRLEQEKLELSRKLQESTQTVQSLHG
Chain of IR(h), activated (human) (P06213 1005-1310 limits assumed): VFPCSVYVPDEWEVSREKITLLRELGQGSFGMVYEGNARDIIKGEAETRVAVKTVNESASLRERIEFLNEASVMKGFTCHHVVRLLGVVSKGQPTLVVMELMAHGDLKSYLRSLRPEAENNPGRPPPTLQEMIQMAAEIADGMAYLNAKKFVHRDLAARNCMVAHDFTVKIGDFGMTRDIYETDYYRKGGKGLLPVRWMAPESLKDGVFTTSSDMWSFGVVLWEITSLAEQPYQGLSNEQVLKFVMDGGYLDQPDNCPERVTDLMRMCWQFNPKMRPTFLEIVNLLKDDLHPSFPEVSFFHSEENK
Chain of MLK1(h) (human) (P80192 132-413 limits assumed): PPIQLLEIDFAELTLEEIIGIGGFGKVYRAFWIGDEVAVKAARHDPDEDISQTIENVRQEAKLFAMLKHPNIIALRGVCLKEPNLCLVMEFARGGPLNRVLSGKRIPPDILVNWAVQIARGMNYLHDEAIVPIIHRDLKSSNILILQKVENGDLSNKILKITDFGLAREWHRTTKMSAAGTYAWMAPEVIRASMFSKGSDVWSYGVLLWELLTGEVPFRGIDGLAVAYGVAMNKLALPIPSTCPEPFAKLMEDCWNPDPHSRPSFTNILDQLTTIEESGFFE

Substance: MMI-0100 (peptide)
% activity [1]: 129%
% activity [2]: 100%
% activity [3]: 110%
% activity [4]: 95%
% activity [5]: 77%
% activity [6]: 109%
% activity [7]: 19%
% activity [8]: 110%
% activity [9]: 87%
% activity [10]: 90%
% activity [11]: 95%
% activity [12]: 98%
% activity [13]: 4%
% activity [14]: 89%
% activity [15]: 114%
% activity [16]: 102%
% activity [17]: 69%
% activity [18]: 105%
% activity [19]: 108%
% activity [20]: 100%
% activity [21]: 87%
% activity [22]: 80%
% activity [23]: 53%
% activity [24]: 98%
% activity [25]: 97%
% activity [26]: 116%
% activity [27]: 97%
% activity [28]: 120%
% activity [29]: 85%
% activity [30]: 76%
% activity [31]: 354%
% activity [32]: 84%
% activity [33]: 102%
% activity [34]: 98%
% activity [35]: 106%
% activity [36]: 102%
% activity [37]: 99%
% activity [38]: 58%
% activity [39]: 117%
% activity [40]: 94%
% activity [41]: 99%
% activity [42]: 77%
% activity [43]: 94%
% activity [44]: 45%
% activity [45]: 114%
% activity [46]: 135%
% activity [47]: 74%
% activity [48]: 128%
% activity [49]: 110%
% activity [50]: 103%
% activity [51]: 70%
% activity [52]: 73%
% activity [53]: 127%
% activity [54]: 104%
% activity [55]: 89%
% activity [56]: 117%

Substance: MMI-0200 (peptide)
% activity [1]: 102%
% activity [2]: 77%
% activity [3]: 127%
% activity [4]: 93%
% activity [5]: 84%
% activity [6]: 88%
% activity [7]: 35%
% activity [8]: 107%
% activity [9]: 118%
% activity [10]: 83%
% activity [11]: 110%
% activity [12]: 108%
% activity [13]: 7%
% activity [14]: 92%
% activity [15]: 136%
% activity [16]: 101%
% activity [17]: 93%
% activity [18]: 107%
% activity [19]: 93%
% activity [20]: 101%
% activity [21]: 98%
% activity [22]: 67%
% activity [23]: 74%
% activity [24]: 106%
% activity [25]: 114%
% activity [26]: 137%
% activity [27]: 81%
% activity [28]: 97%
% activity [29]: 106%
% activity [30]: 120%
% activity [31]: 107%
% activity [32]: 78%
% activity [33]: 100%
% activity [34]: 104%
% activity [35]: 97%
% activity [36]: 95%
% activity [37]: 125%
% activity [38]: 53%
% activity [39]: 118%
% activity [40]: 115%
% activity [41]: 117%
% activity [42]: 141%
% activity [43]: 92%
% activity [44]: 36%
% activity [45]: 143%
% activity [46]: 105%
% activity [47]: 59%
% activity [48]: 119%
% activity [49]: 97%
% activity [50]: 102%
% activity [51]: 33%
% activity [52]: 82%
% activity [53]: 105%
% activity [54]: 95%
% activity [55]: 67%
% activity [56]: 120%

% activity [1]: 84%
% activity [2]: 33%
% activity [3]: 48%
% activity [4]: 15%
% activity [5]: 43%
% activity [6]: 63%
% activity [7]: 9%
% activity [8]: 52%
% activity [9]: 218%
% activity [10]: 93%
% activity [11]: 45%
% activity [12]: 16%
% activity [13]: 12%
% activity [14]: 14%
% activity [15]: 40%
% activity [16]: 62%
% activity [17]: 80%
% activity [18]: 40%
% activity [19]: 20%
% activity [20]: 61%
% activity [21]: 10%
% activity [22]: 1%
% activity [23]: 15%
% activity [24]: 48%
% activity [25]: 87%
% activity [26]: 40%
% activity [27]: 3%
% activity [28]: 18%
% activity [29]: 27%
% activity [30]: 26%
% activity [31]: 78%
% activity [32]: 10%
% activity [33]: 3%
% activity [34]: 2%
% activity [35]: 24%
% activity [36]: 2%
% activity [37]: 29%
% activity [38]: 3%
% activity [39]: 140%
% activity [40]: 47%
% activity [41]: 17%
% activity [42]: 73%
% activity [43]: 59%
% activity [44]: 5%
% activity [45]: 239%
% activity [46]: 73%
% activity [47]: 0%
% activity [48]: 61%
% activity [49]: 7%
% activity [50]: -10%
% activity [51]: 2%
% activity [52]: 2%
% activity [53]: 90%
% activity [54]: 4%
% activity [55]: 15%
% activity [56]: 46%
Substance: MMI-0500 (peptide)
